These results are taken from patent US10272135B2, “Apolipoprotein O and fragments thereof for inducing apoptosis in a cancerous cell” (INSERM (INSTITUT NATIONAL DE LA SANTÉ ET DE LA RECHERCHE …, priority 2014, dated 2019).

Data set [1] relates to MPTP. The experiment in a line: Mitochondrial calcein-cobalt assay of MPTP opening. To be noted: cultured cardiac myoblasts. It is filed as cell-based.
Data set [2] relates to H9c2 cardiac myoblasts. Kind of data set: Measurement of O2 consumption (Oroboros Oxygraph-2k) in cardiac myoblasts. It is filed as cell-based. An excerpt:
After ethical committee approval, all patients in this study gave written consent for sample collection and molecular analysis prior to inclusion. Patients were carefully selected by physicians from the Department of Cardiology, Toulouse University Hospital, prior to coronary by-pass surgery. Bioinformatics. Microarray expression data from human heart samples were downloaded from the GEO repository (GSE1145). This series consisted of 107 myocardial samples collected from patients undergoing cardiac transplantation whose failure arises from different etiologies (e.g. idiopathic dilated cardiomyopathy, ischemic cardiomyopathy, valvular cardiomyopathy, and hypertrophic cardiomyopathy) and from “normal” organ donors whose hearts cannot be used for transplants. Arrays were intensity normalized and hierarchical clustering (average group linkage, Pearson correlation, threshold r=0.8) was applied to identify groups of co-expressed genes. ApoO expression levels were plotted for the 107 human hearts tested and used to define relevant molecular pathways using both Toppgene and Ingenuity Pathway Analysis (Ingenuity systems, Redwood City, Calif., USA). ApoO subcellular localization was predicted using Mitopred, mitoprot and YLoc. Animals: All animal Studies followed the INSERM Institute Animal Facility guidelines and were approved by the animal care committees of the INSERM I2MC UMR 1048. All animal procedures were performed according to the guidelines of the French Ministry of Agriculture. Animals were housed at the Toulouse I2MC animal facility in a room lit 12 h per day (6 AM-6 PM) at an ambient temperature of 22+/−1° C. Construction of ApoO Expression Vectors To overexpress human ApoO (pTT-ApoO), the ApoO coding sequence was amplified using primers hApoO5BamPTT (SEQ ID NO: 2) and hApoO3BamPTT (SEQ ID NO: 3) and cloned into the BamH1 site of pTT expression vector. pSNAP-ApoO was generated by PCR amplification of pTT-ApoO using primers SnapApoEcorV-F (SEQ ID NO: 4) and SnapApoEcorV-R (SEQ ID NO: 5) and cloned into the EcoRV site of pSNAP-Tag® (Ozyme, Saint-Quentin-en-Yvelines, France). pGEX2T-ApoO was constructed by PCR amplification of pTT-ApoO using hApoOpGEX1FBam (SEQ ID NO: 6) and hApoOpGEX1RSma (SEQ ID NO: 7) and cloned into the Bam HI/Sma I site of pGEX2T (Promega, Charbonnières-les-Bains). All primers used in this work were synthesized by Eurogentec France (Angers). All restriction enzymes used were from New England Biolabs (Ozyme, Saint-Quentin-en-Yvelines). All ApoO sequences within the expression vectors were verified by DNA double strand sequencing using ABI PRISM®BigDye™ Terminator version 3.1 Ready reaction cycle sequencing kit (Life Technologies SAS, Villebon sur Yvette) and loaded on an ABI 3130XL DNA sequencing instrument (Life Technologies SAS, Villebon sur Yvette). Cell Culture and Tranfection of H9C2 Cardic Myoblasts H9c2 were obtained from the European Collection of Cell Cultures (Salisbury, England). H9c2 cells were cultured in Dulbecco's modified Eagle medium (Life Technologies SAS, Villebon sur Yvette) adjusted to contain 1.5 g/liter sodium bicarbonate and supplemented with antibiotic-antimycotic solution (Life Technologies SAS, Villebon sur Yvette) and 10% fetal bovine serum (FBS, AbCys s.a., Paris). Cells were plated on 10-cm diameter tissue culture dish and grown in a 5% CO2 incubator at 37° C. with saturating humidity with medium changes every 2 days. […]

Data set [3] has as its system cardiac myoblasts. Kind of data set: Reactive oxygen species assessment (carboxy-DCFDA) in cardiac myoblasts. It is filed as cell-based. The conditions noted are these: ApoO cells vs control (FIG. 4D). The text has this: (§1) After ethical committee approval, all patients in this study gave written consent for sample collection and molecular analysis prior to inclusion. Patients were carefully selected by physicians from the Department of Cardiology, Toulouse University Hospital, prior to coronary by-pass surgery. Bioinformatics. Microarray expression data from human heart samples were downloaded from the GEO repository (GSE1145). This series consisted of 107 myocardial samples collected from patients undergoing cardiac transplantation whose failure arises from different etiologies (e.g. idiopathic dilated cardiomyopathy, ischemic cardiomyopathy, valvular cardiomyopathy, and hypertrophic cardiomyopathy) and from “normal” organ donors whose hearts cannot be used for transplants. Arrays were intensity normalized and hierarchical clustering (average group linkage, Pearson correlation, threshold r=0.8) was applied to identify groups of co-expressed genes. […] All ApoO sequences within the expression vectors were verified by DNA double strand sequencing using ABI PRISM®BigDye™ Terminator version 3.1 Ready reaction cycle sequencing kit (Life Technologies SAS, Villebon sur Yvette) and loaded on an ABI 3130XL DNA sequencing instrument (Life Technologies SAS, Villebon sur Yvette). […]

Data set [4] concerns Bax. The experiment in a line: Bax mRNA levels in cardiac myoblasts. It is filed as cell-based. To be noted: ApoO cells vs control (FIG. 9f).
Source text: as §1

Data set [5] has as its system mouse heart. The experiment in a line: Cardiac specific human ApoO transgenic mice (ApoO-Tg). In kind it is in vivo. The text has this:
After ethical committee approval, all patients in this study gave written consent for sample collection and molecular analysis prior to inclusion. Patients were carefully selected by physicians from the Department of Cardiology, Toulouse University Hospital, prior to coronary by-pass surgery. Bioinformatics. Microarray expression data from human heart samples were downloaded from the GEO repository (GSE1145). This series consisted of 107 myocardial samples collected from patients undergoing cardiac transplantation whose failure arises from different etiologies (e.g. idiopathic dilated cardiomyopathy, ischemic cardiomyopathy, valvular cardiomyopathy, and hypertrophic cardiomyopathy) and from “normal” organ donors whose hearts cannot be used for transplants. Arrays were intensity normalized and hierarchical clustering (average group linkage, Pearson correlation, threshold r=0.8) was applied to identify groups of co-expressed genes. ApoO expression levels were plotted for the 107 human hearts tested and used to define relevant molecular pathways using both Toppgene and Ingenuity Pathway Analysis (Ingenuity systems, Redwood City, Calif., USA). ApoO subcellular localization was predicted using Mitopred, mitoprot and YLoc. Animals: All animal Studies followed the INSERM Institute Animal Facility guidelines and were approved by the animal care committees of the INSERM I2MC UMR 1048. All animal procedures were performed according to the guidelines of the French Ministry of Agriculture. Animals were housed at the Toulouse I2MC animal facility in a room lit 12 h per day (6 AM-6 PM) at an ambient temperature of 22+/−1° C. Construction of ApoO Expression Vectors To overexpress human ApoO (pTT-ApoO), the ApoO coding sequence was amplified using primers hApoO5BamPTT (SEQ ID NO: 2) and hApoO3BamPTT (SEQ ID NO: 3) and cloned into the BamH1 site of pTT expression vector. pSNAP-ApoO was generated by PCR amplification of pTT-ApoO using primers SnapApoEcorV-F (SEQ ID NO: 4) and SnapApoEcorV-R (SEQ ID NO: 5) and cloned into the EcoRV site of pSNAP-Tag® (Ozyme, Saint-Quentin-en-Yvelines, France). pGEX2T-ApoO was constructed by PCR amplification of pTT-ApoO using hApoOpGEX1FBam (SEQ ID NO: 6) and hApoOpGEX1RSma (SEQ ID NO: 7) and cloned into the Bam HI/Sma I site of pGEX2T (Promega, Charbonnières-les-Bains). All primers used in this work were synthesized by Eurogentec France (Angers). All restriction enzymes used were from New England Biolabs (Ozyme, Saint-Quentin-en-Yvelines). All ApoO sequences within the expression vectors were verified by DNA double strand sequencing using ABI PRISM®BigDye™ Terminator version 3.1 Ready reaction cycle sequencing kit (Life Technologies SAS, Villebon sur Yvette) and loaded on an ABI 3130XL DNA sequencing instrument (Life Technologies SAS, Villebon sur Yvette). Cell Culture and Tranfection of H9C2 Cardic Myoblasts H9c2 were obtained from the European Collection of Cell Cultures (Salisbury, England). H9c2 cells were cultured in Dulbecco's modified Eagle medium (Life Technologies SAS, Villebon sur Yvette) adjusted to contain 1.5 g/liter sodium bicarbonate and supplemented with antibiotic-antimycotic solution (Life Technologies SAS, Villebon sur Yvette) and 10% fetal bovine serum (FBS, AbCys s.a., Paris). Cells were plated on 10-cm diameter tissue culture dish and grown in a 5% CO2 incubator at 37° C. with saturating humidity with medium changes every 2 days. H9c2 cardiomyoblasts were stably transfected by electroporation and pools of tranfectants were selected as previously published. Knock-Down of ApoO Overexpression shRNA used to knock-down ApoO gene expression and controls were from MISSION shRNA set; Sh2=TRCN 72707; Sh4=TRCN 72704; Sh5=TRCN 72705 (Sigma Aldrich, Saint-Quentin Fallavier) and used as recommended by generating pools of stable transfectants. Empty vector (no shRNA insert) control was also transfected and had no significant effect. […]

B1: ApoO: 198-amino acid apolipoprotein, SEQ ID NO: 1; tested by overexpression from expression vectors or transgene (protein, listed as Homo sapiens)
chain: MFKVIQRSVGPASLSLLTFKVYAAPKKDSPPKNSVKVDELSLYSVPEGQSKYVEEARSQLEESISQLRHYCEPYTTWCQETYSQTKPKMQSLVQWGLDSYDYLQNAPPGFFPRLGVIGFAGLIGLLLARGSKIKKLVYPPGFMGLAASLYYPQQAIVFAQVSGERLYDWGLRGYIVIEDLWKENFQKPGNVKNSPGTK
Turning to B1, the “kinetics of MPTP opening” value in data set [1] is on record as “alters the kinetics of MPTP opening”. The basal oxygen consumption entry in data set [2] (ApoO cells vs control cardiac myoblasts (FIG. 4A)) is “two-fold increase”. Besides, the “respiration coupling (RC)” value in data set [2] (ApoO cells vs control, CCCP / oligomycin oxygen consumption (FIG. 4C)) is on record as “decreases”. Further, the “intracellular reactive oxygen species (ROS)” value in data set [3] is listed as “increases”. Moreover, in data set [4], the “expression of Bax” value is recorded as “increase”. Also, the “cytochrome C oxidase activity in heart” value in data set [5] (ApoO-Tg hearts) was “increase”. Also, the “diglyceride levels in heart” value in data set [5] (ApoO-Tg vs WT (FIG. 8a)) is given as “increased”. For the same molecule, in data set [5] (ApoO-Tg vs WT (FIG. 8b)), the “intracellular triglycerides in heart” value is given as “did not significantly modify”. Also, the “Bax expression in heart” value in data set [5] (ApoO-Tg vs WT (FIG. 9b)) is “enhanced”. The “Caspase-3 activity in heart” value in data set [5] (ApoO-Tg vs WT (FIG. 9c)) was “enhanced”. Moreover, in data set [5] (hearts from ApoO-Tg mice), the “ACSL activity in heart” value was “significant increase” and the “fatty acid transporter expression in heart” value was “significant increase”. The calcium retention capacity result in data set [5] (mitochondria isolated from ApoO-Tg mice hearts) was “significantly diminished”.
